# B1: LINE1-mini (parent)
# chain: GGCAGAGCUCAACACAGCGUGGCAAAGUGGCUGUGGCUAGACUGCC
# Variants of: B1
# Experiment: self-cleavage, relative activity (ratio to wild type); higher = more cleavage; in vitro, sequencing; the parent is a self-cleaving ribozyme
row,Variant,self-cleavage
1,GGCAGAGCUCAACACAGCGUGCCAUAGUGGCUGUGGCUAGACUGCC,1.23
2,GGCAGAGCUCAACACAGCGUGCCACAGUGGCUGUGGCUAGACUGCC,0.31
3,GGCAGAGCUCAACACAGCGUGCCAGAGUGGCUGUGGCUAGACUGCC,1.07
4,GGCAGAGCUCAACACAGCGUGACAAAGUGGCUGUGGGUAGACUGCC,0.03
5,GGCAGAGCUCAACACAGCGUGACAAAGUGGCUGUGGAUAGACUGCC,0.04
6,GGCAGAGCUCAACACAGCGUGACAAAGUGGCUGUGGUUAGACUGCC,0.05
7,GGCAGAGCUCAACACAGCGUGACAAAGUGGCUGUGGCUAGACUGGC,0.32
8,GGCAGAGCUCAACACAGCGUGACAAAGUGGCUGUGGCUAGACUGUC,1.44
9,GGCAGAGCUCAACACAGCGUGACAAAGUGGCUGUGGCUAGACUGAC,0.67
10,GGCAGAGCUCAACACAGCGUGACAAAGUGGCUGAGGCUAGACUGCC,0.2
11,GGCAGAGCUCAACACAGCGUGACAAAGUGGCUGCGGCUAGACUGCC,0.87
12,GGCAGAGCUCAACACAGCGUGACAAAGUGGCUGGGGCUAGACUGCC,0.51
13,GGCAGAGCUCAACACAGCGUUGCAAAGUGGCUGUGGCUAGACUUCC,0.5
14,GGCAGAGCUCAACACAGCGUUGCAAAGUGGCUGUGGCUAGACUACC,0.53
15,GGCAGAGCUCAACACAGCGUUGCAAAGUGGCUGUGGCUAGACUCCC,0.25
16,GGCAGAGCUCAACACAGCGUGCCUAAGUGGCUGUGGCUAGACUGCC,0.52
17,GGCAGAGCUCAACACAGCGUGCCGAAGUGGCUGUGGCUAGACUGCC,0.74
18,GGCAGAGCUCAACACAGCGUGCCCAAGUGGCUGUGGCUAGACUGCC,0.85
19,GGCAGAGCUCAACACAGCGUGACAAAGUGGCUCUGGCUAGACUGCC,0.05

row,Variant,self-cleavage
1,GGCAGAGCUCAACACAGCGUGACAAAGUGGCUUUGGCUAGACUGCC,0.22
2,GGCAGAGCUCAACACAGCGUGACAAAGUGGCUAUGGCUAGACUGCC,0.52
3,GGCAGAGCUCAACACAGCGUGACAAAGUGGCUGUGGCUAGACUUCC,0.34
4,GGCAGAGCUCAACACAGCGUGACAAAGUGGCUGUGGCUAGACUACC,0.97
5,GGCAGAGCUCAACACAGCGUGACAAAGUGGCUGUGGCUAGACUCCC,0.23
6,GGCAGAGCUCAACACAGCGUGACAAAGUGGCUGUGGCGAGACUGCC,0.01
7,GGCAGAGCUCAACACAGCGUGACAAAGUGGCUGUGGCCAGACUGCC,0.68
8,GGCAGAGCUCAACACAGCGUGACAAAGUGGCUGUGGCAAGACUGCC,0.33
9,GGCAGAGCUCAACACAGCGUGACAAAGUGUCUGUGGCUAGACUGCC,0.96
10,GGCAGAGCUCAACACAGCGUGACAAAGUGACUGUGGCUAGACUGCC,1.24
11,GGCAGAGCUCAACACAGCGUUGCAAAGUGGCUGUUGCUAGACUGCC,0.22
12,GGCAGAGCUCAACACAGCGUGACAAAGUGGCUGUUGCUAGACUGCC,0.14
13,GGCAGAGCUCAACACAGCGUGACAAAGUGGCUGUAGCUAGACUGCC,0.23
14,GGCAGAGCUCAACACAGCGUGACAAAGUGGCUGUCGCUAGACUGCC,0.12
15,GGCAGAGCUCAACACAGCGUGCCAAAGUGGCUGUGGCUAGACUGCC,0.78
16,GGCAGAGCUCAACACAGCGUGACAAAGUGGCUGUGGCUAGACUGCC,0.81
17,GGCAGAGCUCAACACAGCGUUGCAAAGUGGCUGUGGCUAUACUGCC,0.18
18,GGCAGAGCUCAACACAGCGUUGCAAAGUGGCUGUGGCUAAACUGCC,0.29
19,GGCAGAGCUCAACACAGCGUUGCAAAGUGGCUGUGGCUACACUGCC,0.11

row,Variant,self-cleavage
1,GGCAGAGCUCAACACAGCGUGACAAAGUGGUUGUGGCUAGACUGCC,0.49
2,GGCAGAGCUCAACACAGCGUGACAAAGUGGGUGUGGCUAGACUGCC,0.1
3,GGCAGAGCUCAACACAGCGUGACAAAGUGGAUGUGGCUAGACUGCC,0.2
4,GGCAGAGCUCAACACAGCGUGACAAAGUGGCUGUGACUAGACUGCC,0.1
5,GGCAGAGCUCAACACAGCGUGACAAAGUGGCUGUGCCUAGACUGCC,0.13
6,GGCAGAGCUCAACACAGCGUGACAAAGUGGCUGUGUCUAGACUGCC,0.15
7,GGCAGAGCUCAACACAGCGUUGCAAAGUGGCUGUGUCUAGACUGCC,0.12
8,GGCAGAGCUCAACACAGCGUUGCAAAGUGGCUGUGCCUAGACUGCC,0.1
9,GGCAGAGCUCAACACAGCGUUGCAAAGUGGCUGUGACUAGACUGCC,0.27
10,GGCAGAGCUCAACACAGCGUGACAAAGUGGCUGUGGCUGGACUGCC,0.17
11,GGCAGAGCUCAACACAGCGUGACAAAGUGGCUGUGGCUCGACUGCC,0.09
12,GGCAGAGCUCAACACAGCGUGACAAAGUGGCUGUGGCUUGACUGCC,0.5
13,GGCAGAGCUCAACACAGCGUGACAAAGGGGCUGUGGCUAGACUGCC,0.67
14,GGCAGAGCUCAACACAGCGUGACAAAGAGGCUGUGGCUAGACUGCC,0.4
15,GGCAGAGCUCAACACAGCGUGACAAAGCGGCUGUGGCUAGACUGCC,0.51
16,GGCAGAGCUCAACACAGCGUGCCAAAGUGGCUGUGGCUCGACUGCC,0.19
17,GGCAGAGCUCAACACAGCGUGCCAAAGUGGCUGUGGCUUGACUGCC,0.55
18,GGCAGAGCUCAACACAGCGUGCCAAAGUGGCUGUGGCUGGACUGCC,0.09

# Source: the RNAGym collection of RNA variant scans (doi:10.7554/elife.90254)
